Experimental data published in ChEMBL document CHEMBL3244047, “Peptidyl transferase substrate specificity with nonaromatic aminoacyl analogues of puromycin” (J Med Chem, 1978).
One block for each compound: values may come before it. Active and inactive are the calls of the source. No cut-off for these calls is given here.

Columns and labels:
[1] = biological target: T1, Bacterial 70S ribosome (Bacteria) (UniProt P0A7V0+P60723+P0AG67+P0A7R5+P0A7R9+P0A7S3+P0A7S9+P0AG59+P0ADZ4+P0A7T3+P0AG63+P0A7T7+P0A7U3+P0A7U7+P68679+P0A7V3+P0A7V8+P0A7W1+P02358+P02359+P0A7W7+P0A7X3+P0A7J3+P0A7J7+P0AA10+P0ADY3+P02413+P0ADY7+P0AG44+P0C018+P0A7K6+P0A7L0+P0A7L3+P0AG48+P61175+P0ADZ0+P60624+P68919+P0A7L8+P0A7M2+P0A7M6+P60422+P0AG51+P0A7N1+P0A7M9+P0A7N4+P0A7N9+P0A7P5+P0A7Q1+Q2EEQ2+P0A7Q6+P60438+P62399+P0AG55+P0A7K2); assay: Activity of Escherichia coli ribosomal peptidyl transferase using Ac[14C]phe-tRNA as donor substrate assessed as [14C]polyphenylalanine formation at 2 x 10^-4 M after 40 mins by double reciprocal plot analysis in presence of poly(U)
[2] = biological target: T1, Bacterial 70S ribosome (Bacteria); assay: Activity of Escherichia coli ribosomal peptidyl transferase using Ac[14C]phe-tRNA as donor substrate assessed as [14C]polyphenylalanine formation after 40 mins by scintillation counting analysis in presence of poly(U) relative to puromycin
[3] = system: CN(C)c1ncnc2c1ncn2[C@@H]1O[C@H](CO)[C@@H](NC(=O)[C@@H](N)CSCCCCCCO)[C@H]1O; assay: (§1) Activity of Escherichia coli ribosomal peptidyl transferase using Ac[14C]phe-tRNA as donor substrate assessed as [14C]polyphenylalanine formation after 40 mins by double reciprocal plot analysis in presence of poly(U); settings: Ribosome
[4] = system: CCCCCSC[C@H](N)C(=O)N[C@H]1[C@@H](O)[C@H](n2cnc3c(N(C)C)ncnc32)O[C@@H]1CO; assay: as §1; settings: Ribosome
[5] = system: CCCCSC[C@H](N)C(=O)N[C@H]1[C@@H](O)[C@H](n2cnc3c(N(C)C)ncnc32)O[C@@H]1CO; assay: as §1; settings: Ribosome
[6] = system: COc1ccc(C[C@H](N)C(=O)N[C@H]2[C@@H](O)[C@H](n3cnc4c(N(C)C)ncnc43)O[C@@H]2CO)cc1; assay: as §1; settings: Ribosome
[7] = system: CCCCCCSC[C@H](N)C(=O)N[C@H]1[C@@H](O)[C@H](n2cnc3c(N(C)C)ncnc32)O[C@@H]1CO; assay: as §1; settings: Ribosome
[8] = system: CCCSC[C@H](N)C(=O)N[C@H]1[C@@H](O)[C@H](n2cnc3c(N(C)C)ncnc32)O[C@@H]1CO; assay: as §1; settings: Ribosome
[9] = system: CCCCCCCCSC[C@H](N)C(=O)N[C@H]1[C@@H](O)[C@H](n2cnc3c(N(C)C)ncnc32)O[C@@H]1CO; assay: as §1; settings: Ribosome
[10] = system: CN(C)c1ncnc2c1ncn2[C@@H]1O[C@H](CO)[C@@H](NC(=O)[C@@H](N)CSCc2ccccc2)[C@H]1O; assay: as §1; settings: Ribosome

Compound: CCC(CC)SC[C@H](N)C(=O)N[C@H]1[C@@H](O)[C@H](n2cnc3c(N(C)C)ncnc32)O[C@@H]1CO
Activity [1]: inactive

Compound: CCCSC[C@H](N)C(=O)N[C@H]1[C@@H](O)[C@H](n2cnc3c(N(C)C)ncnc32)O[C@@H]1CO
Efficacy [2]: 44.8%

Compound: CN(C)c1ncnc2c1ncn2[C@@H]1O[C@H](CO)[C@@H](NC(=O)[C@@H](N)CSC(c2ccccc2)c2ccccc2)[C@H]1O
Activity [1]: inactive

Compound: CN(C)c1ncnc2c1ncn2[C@@H]1O[C@H](CO)[C@@H](NC(=O)[C@@H](N)CSCc2ccccc2)[C@H]1O
Efficacy [2]: 17.4%

Compound: Bacterial 70S ribosome (Bacteria) (from UniProt P0A7V0+P60723+P0AG67+P0A7R5+P0A7R9+P0A7S3+P0A7S9+P0AG59+P0ADZ4+P0A7T3+P0AG63+P0A7T7+P0A7U3+P0A7U7+P68679+P0A7V3+P0A7V8+P0A7W1+P02358+P02359+P0A7W7+P0A7X3+P0A7J3+P0A7J7+P0AA10+P0ADY3+P02413+P0ADY7+P0AG44+P0C018+P0A7K6+P0A7L0+P0A7L3+P0AG48+P61175+P0ADZ0+P60624+P68919+P0A7L8+P0A7M2+P0A7M6+P60422+P0AG51+P0A7N1+P0A7M9+P0A7N4+P0A7N9+P0A7P5+P0A7Q1+Q2EEQ2+P0A7Q6+P60438+P62399+P0AG55+P0A7K2)
Km [3]: 166 µM
Vmax [3]: 2.71 pmol/min
Km [4]: 255 µM
Vmax [4]: 2.36 pmol/min
Km [5]: 395 µM
Vmax [5]: 2.43 pmol/min
Km [6]: 234 µM
Vmax [6]: 3.99 pmol/min
Km [7]: 215 µM
Vmax [7]: 2.46 pmol/min
Km [8]: 374 µM
Vmax [8]: 2.86 pmol/min
Km [9]: 177 µM
Vmax [9]: 1.38 pmol/min
Km [10]: 460 µM
Vmax [10]: 1.36 pmol/min

Now from value to compound:

Efficacy [2]: 45.6%
Compound: CCCCCCCCSC[C@H](N)C(=O)N[C@H]1[C@@H](O)[C@H](n2cnc3c(N(C)C)ncnc32)O[C@@H]1CO

Efficacy [2]: 67.5%
Compound: CCCCCCSC[C@H](N)C(=O)N[C@H]1[C@@H](O)[C@H](n2cnc3c(N(C)C)ncnc32)O[C@@H]1CO

Efficacy [2]: 54.3%
Compound: CCCCCSC[C@H](N)C(=O)N[C@H]1[C@@H](O)[C@H](n2cnc3c(N(C)C)ncnc32)O[C@@H]1CO

Efficacy [2]: 36.2%
Compound: CCCCSC[C@H](N)C(=O)N[C@H]1[C@@H](O)[C@H](n2cnc3c(N(C)C)ncnc32)O[C@@H]1CO

Efficacy [2]: 95.6%
Compound: CN(C)c1ncnc2c1ncn2[C@@H]1O[C@H](CO)[C@@H](NC(=O)[C@@H](N)CSCCCCCCO)[C@H]1O
